In patent publication US20240218024A1, “METHODS AND COMPOSITIONS FOR TREATMENT OF VIRAL INFECTION” (TECHNION RESEARCH & DEVELOPMENT FOUNDATION LIMITED, priority 2021, published 2024):

B1: PCP-4×: class I slncRNA with four PCP binding hairpins (SEQ ID NO: 24) (nucleic acid)
chain: GAGAAACGTTTCGACATTATATGGAATGCGAAACACGGAGGATGCGGGAAACATGAAGATCACTCATGTTCGCTTAACCATGGATAGGGATCACCCATGTTGCGGTGGTGCGTCAACCAGAGATTTCATATGGGAAACTCTGGGACACGCTGTATTTATACATGAGGATCACCATGTGTGCTTAAATATGGGTAATTCCAGTTTATATGGAAACGGAATAAGATTAGATATGGTTTAAACGACAATATATGGATTGCGTTTTGGGGCACGCCGTCTGGTTACTGCGATGGGTGGGAGGTAGAGGGATTCTAAGCTTAAGA
B2: PCP-3×: class I slncRNA with three PCP binding hairpins (SEQ ID NO: 23) (nucleic acid)
chain: GAGAAACGTTTCGACATTATATGGAATGCGAAACACGGAGGATGCGGGAAACATGAAGATCACTCATGTTCGCTTAACCATGGATAGGGATCACCCATGTTGCGGTGGTGCGTCAACCAGAGATTTCATATGGGAAACTCTGGGACACGCTGTATTTATACATGAGGATCACCATGTGTGCTTAAATATGGGTAATTCCAGTTTATATGGAAACGGA

Assay: In vitro slncRNA and slncRNA-protein granule formation (fluorescence microscopy)
Format: physicochemical

| Molecule | Poisson parameter λ best fit of condensate fluorescence intensity distribution (slncRNA-only condensates) | formation of fluorescent condensates, slncRNA only (8.5 nM slncRNA, granule forming buffer, 1 hour room temperature) | median mCherry fluorescence of SRNP granules relative to PCP-14×/MCP-15× granules (SRNP granules with tdPCP-mCherry) | granule formation / colocalization with tdPCP-mCherry (slncRNA plus 25 nM tdPCP-mCherry) |
| --- | --- | --- | --- | --- |
| B1 | 0 |  |  |  |
| B2 |  | no such structures were detected | half as bright | witnessed in the presence of the protein |
